Tests used:
[1] = biological target: T1, A462S (Homo sapiens, UniProt P78325); assay: high-throughput flow cytometry, HEK293 cells with mutant ADAM8, high stringency; range in parentheses
T1 construct: expressed on HEK293 cells; also called human ADAM8 point mutant A462S
T1 sequence (ADAM8, looked up): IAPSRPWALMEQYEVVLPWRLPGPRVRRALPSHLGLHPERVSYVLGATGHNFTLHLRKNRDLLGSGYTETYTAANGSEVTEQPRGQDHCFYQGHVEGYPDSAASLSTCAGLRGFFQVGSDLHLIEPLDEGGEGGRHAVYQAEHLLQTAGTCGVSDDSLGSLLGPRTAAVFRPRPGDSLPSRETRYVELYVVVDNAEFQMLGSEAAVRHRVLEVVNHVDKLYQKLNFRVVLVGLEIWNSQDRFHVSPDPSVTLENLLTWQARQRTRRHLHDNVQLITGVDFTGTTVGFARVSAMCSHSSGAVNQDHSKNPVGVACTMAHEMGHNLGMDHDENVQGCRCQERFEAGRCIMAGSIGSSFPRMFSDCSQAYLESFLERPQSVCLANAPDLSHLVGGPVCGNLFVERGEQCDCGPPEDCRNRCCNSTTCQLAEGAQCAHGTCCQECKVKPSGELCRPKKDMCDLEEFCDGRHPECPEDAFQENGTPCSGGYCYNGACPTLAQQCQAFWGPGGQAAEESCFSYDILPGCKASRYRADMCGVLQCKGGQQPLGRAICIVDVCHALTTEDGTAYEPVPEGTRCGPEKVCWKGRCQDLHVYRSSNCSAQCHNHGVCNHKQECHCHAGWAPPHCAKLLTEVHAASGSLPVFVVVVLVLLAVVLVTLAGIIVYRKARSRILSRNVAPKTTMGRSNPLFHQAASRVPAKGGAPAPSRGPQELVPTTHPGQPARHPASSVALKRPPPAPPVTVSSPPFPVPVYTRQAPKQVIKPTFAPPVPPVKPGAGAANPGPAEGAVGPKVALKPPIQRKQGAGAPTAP
Protocol: (§1) A variety of experimental parameters were optimized for high-throughput flow cytometry including blocking buffer, and primary and secondary antibody concentrations, to identify the optimal conditions for screening. Through these studies ADP2 and ADP13 were determined to be high affinity binding antibodies.
(§2) Thus, for these studies antigen-binding fragments (Fabs) of ADP2 and ADP13, which bind with lower affinity than the full antibody, were generated. In addition, higher binding stringency conditions were tested, such as increased pH, salinity, and temperature, and/or increased washing, to weaken binding sufficiently to allow identification of critical binding residues in flow cytometry. The final experimental flow cytometry conditions were: primary antibody incubation with ADP2 Fab (0.50 μg/ml), ADP13 Fab (5.00 μg/ml) and Control Ab (0.16 μg/ml) for 60 minutes in flow cytometry buffer containing 10% goat serum in PBS (Ca²⁺ and Mg²⁺ free). […] Samples were washed three times after primary antibody incubation and twice after secondary antibody incubation with PBS (Ca²⁺ and Mg′ free). Next, HEK293 cells expressing WT or mutated ADAM8 proteins or EV DNA were incubated with ADP2 or ADP13 Fabs or Control Ab at their optimal concentrations. Fab binding was detected using Alexa Fluor 488-conjugated secondary antibodies and mean cellular fluorescence determined using the Intellicyt iQue flow cytometry platform. […] This counter-screen strategy facilitates the exclusion of mutants that are locally misfolded or that have an expression defect. Binding of each test Fab to each mutant clone in the alanine scanning library was determined, in duplicate, by high-throughput flow cytometry.

[2] = biological target: T2, V459A (Homo sapiens, UniProt P78325); assay: as above
T2 construct: expressed on HEK293 cells; also called human ADAM8 point mutant V459A
T2 sequence (ADAM8, looked up): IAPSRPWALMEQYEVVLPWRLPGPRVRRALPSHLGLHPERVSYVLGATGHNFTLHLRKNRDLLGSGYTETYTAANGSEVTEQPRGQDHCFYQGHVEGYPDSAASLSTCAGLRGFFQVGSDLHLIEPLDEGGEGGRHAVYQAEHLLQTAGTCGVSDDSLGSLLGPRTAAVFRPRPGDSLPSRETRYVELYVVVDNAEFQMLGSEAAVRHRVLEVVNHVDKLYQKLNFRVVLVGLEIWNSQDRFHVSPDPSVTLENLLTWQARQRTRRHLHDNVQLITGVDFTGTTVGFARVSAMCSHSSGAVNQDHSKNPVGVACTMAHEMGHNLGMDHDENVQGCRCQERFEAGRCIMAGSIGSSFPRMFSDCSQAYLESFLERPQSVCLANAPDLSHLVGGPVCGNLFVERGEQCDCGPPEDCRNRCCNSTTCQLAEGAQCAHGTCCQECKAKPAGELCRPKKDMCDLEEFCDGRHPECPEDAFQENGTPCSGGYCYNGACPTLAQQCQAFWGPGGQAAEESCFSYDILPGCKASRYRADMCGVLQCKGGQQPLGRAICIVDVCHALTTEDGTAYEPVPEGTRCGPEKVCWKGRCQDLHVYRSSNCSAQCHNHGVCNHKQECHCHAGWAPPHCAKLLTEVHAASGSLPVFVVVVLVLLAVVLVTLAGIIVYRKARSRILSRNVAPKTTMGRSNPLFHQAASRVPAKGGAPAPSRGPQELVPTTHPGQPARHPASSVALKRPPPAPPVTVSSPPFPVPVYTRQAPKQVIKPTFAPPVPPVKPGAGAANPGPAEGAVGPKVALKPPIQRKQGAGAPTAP
Protocol: as §1, §2

B1: ADP2 Fab (Fab, V domains shown)
VH: EVKLVESGGGLVQPGGSLSLSCAASGFSFPDYYMSWVRQPPGKALEWLGFIRDSANGYTTEYIASVKGRFTFSRDNSQSILYLQMNALRAEDSATYYCARYSRYYGMDYWGQGTSVTVSS
VL: SIVMTQTPKILLVSAGDRVTITCKASQTVNYDVAWYQQKPGQSPKPVIYFASNRYTGVPDRFTGSGFGTDFTFTISTVQAEDLAVYFCQQDYSAPWTFGGGTKLEIK
Q: What does the source list for B1?
A: Binding Reactivity (% WT) [1]: 50.1 % WT; Binding Reactivity (% WT) [2]: 55.6 % WT

Reference: patent US20220227882A1 (TRUSTEES OF TUFTS COLLEGE, published 2022)
